The record followed here is patent US20070004909A1.

The experiment has as its target soluble CD16A (sCD16A) (UniProt P08637). Nature of the experiment: SPR (BIAcore 1000); receptor amine-coupled (~1000 RU), scFv as analyte; units not printed (koff/kon implies nM). (In SPR one partner is held on a chip, and binding of the other changes the refractive index at the surface.)

Sequence of soluble CD16A (sCD16A) (P08637 17-208 limits assumed): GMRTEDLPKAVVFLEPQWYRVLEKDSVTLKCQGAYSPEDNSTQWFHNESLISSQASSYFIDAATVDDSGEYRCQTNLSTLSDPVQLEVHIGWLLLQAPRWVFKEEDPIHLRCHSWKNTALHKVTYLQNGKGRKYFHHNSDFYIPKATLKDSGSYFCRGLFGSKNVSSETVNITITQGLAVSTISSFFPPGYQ

h3G8 scFv displayed a Kd of 38.7 nM.

What is called Kd is the free concentration of one partner at which half of the binding sites on the other are occupied at equilibrium, for simple one-to-one binding. Read a low Kd as higher affinity.
